Where two headings read alike, the source gives them in different places. Starred links: 1 amine or outer side, 2 acyl side, 3 side chain; linkers in the order of their positions; H or OH if unused. Non-standard residues stand in square brackets, D forms with d. Groups on a side chain read outwards from the residue. No end group written: not given here. *: point of attachment. C20 diacid = O=C(O)CCCCCCCCCCCCCCCCCCC(=O)*; γGlu = O=C(O)[C@H](CCC(=O)[*:2])N[*:1]; αMeL = CC(C)C[C@](C)(N)C(=O)O; αMeK = C[C@](N)(CCCCN)C(=O)O; Iva = CC[C@](C)(N)C(=O)O; AEEA = NCCOCCOCC(=O)O; Aib = CC(C)(N)C(=O)O
Tests used:
Experiment in all cases: cell-based or functional assay
[1] = target: T1, human glucagon-like peptide-1 receptor (human, UniProt P43220 24-463)
[2] = target: T2, human glucose-dependent insulinotropic polypeptide receptor (human, UniProt P48546 22-466)
T2 sequence (looked up): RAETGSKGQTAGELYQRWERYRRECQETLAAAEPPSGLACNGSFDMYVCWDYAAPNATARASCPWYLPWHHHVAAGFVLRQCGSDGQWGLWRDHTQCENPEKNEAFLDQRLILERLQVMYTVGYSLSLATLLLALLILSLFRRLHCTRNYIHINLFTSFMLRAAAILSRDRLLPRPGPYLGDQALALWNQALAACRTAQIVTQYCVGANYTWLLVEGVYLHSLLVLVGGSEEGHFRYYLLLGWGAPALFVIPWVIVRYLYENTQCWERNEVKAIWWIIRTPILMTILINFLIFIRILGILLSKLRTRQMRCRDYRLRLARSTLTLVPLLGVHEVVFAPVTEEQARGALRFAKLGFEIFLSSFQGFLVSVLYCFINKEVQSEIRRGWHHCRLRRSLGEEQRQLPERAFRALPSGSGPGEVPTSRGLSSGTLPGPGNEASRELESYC

[3] = target: T2, human glucose-dependent insulinotropic …; remark: listed apart in the source
[4] = target: T3, human glucagon receptor (human, UniProt P47871 26-477)
[5] = target: T2, human glucose-dependent insulinotropic …; remark: listed apart in the source
[6] = target: T3, human glucagon receptor; remark: listed apart in the source
[7] = target: T1, human glucagon-like peptide-1 receptor; remark: listed apart in the source
[8] = target: T3, human glucagon receptor; remark: listed apart in the source
[9] = target: T2, human glucose-dependent insulinotropic …; remark: listed apart in the source
[10] = target: T3, human glucagon receptor; remark: listed apart in the source
[11] = target: T1, human glucagon-like peptide-1 receptor; remark: listed apart in the source
[12] = target: T2, human glucose-dependent insulinotropic …; remark: listed apart in the source
[13] = target: T3, human glucagon receptor; remark: listed apart in the source

T3 sequence (P47871 26-477): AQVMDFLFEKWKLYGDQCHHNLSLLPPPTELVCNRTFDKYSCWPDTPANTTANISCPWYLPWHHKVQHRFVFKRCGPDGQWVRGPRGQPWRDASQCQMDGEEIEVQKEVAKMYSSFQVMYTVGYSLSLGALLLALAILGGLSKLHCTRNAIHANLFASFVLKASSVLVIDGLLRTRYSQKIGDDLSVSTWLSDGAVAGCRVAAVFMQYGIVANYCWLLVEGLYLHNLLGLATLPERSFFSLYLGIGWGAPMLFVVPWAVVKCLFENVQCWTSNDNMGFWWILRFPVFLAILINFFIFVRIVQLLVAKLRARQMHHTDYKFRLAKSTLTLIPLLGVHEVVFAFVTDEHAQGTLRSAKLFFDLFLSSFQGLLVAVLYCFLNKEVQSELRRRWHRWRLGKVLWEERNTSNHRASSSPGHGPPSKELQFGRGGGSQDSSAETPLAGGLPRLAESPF

B1: Compound No. 0128 (peptide)
peptide: H[Aib]HGTFTSDYS[αMeK]LLEK([AEEA-AEEA-γGlu-C20 diacid])QAA[Iva]EFVEWLLAGGPSSGAPPPS-NH2
- Activity against human GLP-1R (EC50 nM) [1]: 0.04 nM
- Activity against human GIPR (EC50 nM) [2]: 0.0005 nM

B2: Compound No. 0156 (peptide)
peptide: H[Aib]QGTFTSDYSILLEK([AEEA-AEEA-γGlu-C20 diacid])KAA[Aib]EFVEWLLAGGPSSGAPPPS-NH2
- Activity against human GIPR (EC50 nM) [3]: 0.019 nM
- Activity against human GCGR (EC50 nM) [4]: 0.566 nM

B3: Compound No. 0113 (peptide)
peptide: H[Aib]HGTFTSDYS[αMeK]YLEK([AEEA-AEEA-γGlu-C20 diacid])KAQQEFVEWLLAGGPSSGAPPPS-NH2
- Activity against human GIPR (EC50 nM) [5]: 0.015 nM
- Activity against human GCGR (EC50 nM) [6]: 5.91 nM

B4: Compound No. 0107 (peptide)
peptide: H[Aib]HGTFTSDYSK[Aib]LEK([AEEA-AEEA-γGlu-C20 diacid])KAAQEFVEWLLAGGPSSGAPPPS-NH2
- Activity against human GLP-1R (EC50 nM) [7]: 0.016 nM
- Activity against human GCGR (EC50 nM) [8]: 0.274 nM

B5: Compound No. 0157 (peptide)
peptide: H[Aib]QGTFTSDYSI[αMeL]LEK([AEEA-AEEA-γGlu-C20 diacid])KAA[Aib]EFVEWLLAGGPSSGAPPPS-NH2
- Activity against human GIPR (EC50 nM) [3]: 0.008 nM
- Activity against human GCGR (EC50 nM) [4]: 1.33 nM

B6: Compound No. 0136 (peptide)
peptide: H[Aib]HGTFTSDLSILLEK([AEEA-AEEA-γGlu-C20 diacid])KAA[Iva]EFVEWLLAGGPSSGAPPPS-NH2
- Activity against human GIPR (EC50 nM) [9]: 0.001 nM
- Activity against human GCGR (EC50 nM) [10]: 0.039 nM

B7: Compound No. 0111 (peptide)
peptide: H[Aib]HGTFTSDYS[αMeK]YLEK([AEEA-AEEA-γGlu-C20 diacid])KAAQEFVEWLIAGGPSSGAPPPS-NH2
modifications: N-terminus assumed
SMILES: CC[C@H](C)[C@H](NC(=O)[C@H](CC(C)C)NC(=O)[C@H](Cc1c[nH]c2ccccc12)NC(=O)[C@H](CCC(=O)O)NC(=O)[C@@H](NC(=O)[C@H](Cc1ccccc1)NC(=O)[C@H](CCC(=O)O)NC(=O)[C@H](CCC(N)=O)NC(=O)[C@H](C)NC(=O)[C@H](C)NC(=O)[C@H](CCCCN)NC(=O)[C@H](CCCCNC(=O)COCCOCCNC(=O)COCCOCCNC(=O)CC[C@H](NC(=O)CCCCCCCCCCCCCCCCCCC(=O)O)C(=O)O)NC(=O)[C@H](CCC(=O)O)NC(=O)[C@H](CC(C)C)NC(=O)[C@H](Cc1ccc(O)cc1)NC(=O)[C@](C)(CCCCN)NC(=O)[C@H](CO)NC(=O)[C@H](Cc1ccc(O)cc1)NC(=O)[C@H](CC(=O)O)NC(=O)[C@H](CO)NC(=O)[C@@H](NC(=O)[C@H](Cc1ccccc1)NC(=O)[C@@H](NC(=O)CNC(=O)[C@H](Cc1c[nH]cn1)NC(=O)C(C)(C)NC(=O)[C@@H](N)Cc1c[nH]cn1)[C@@H](C)O)[C@@H](C)O)C(C)C)C(=O)N[C@@H](C)C(=O)NCC(=O)NCC(=O)N1CCC[C@H]1C(=O)N[C@@H](CO)C(=O)N[C@@H](CO)C(=O)NCC(=O)N[C@@H](C)C(=O)N1CCC[C@H]1C(=O)N1CCC[C@H]1C(=O)N1CCC[C@H]1C(=O)N[C@@H](CO)C(N)=O
- Activity against human GIPR (EC50 nM) [5]: 0.024 nM
- Activity against human GCGR (EC50 nM) [6]: 0.552 nM

B8: Compound No. 0151 (peptide)
peptide: H[Aib]HGTFTSDYSILLEK([AEEA-AEEA-γGlu-C20 diacid])KAAQEFVEWLLA[dE]GPSSGAPPPS-NH2
modifications: N-terminus assumed
SMILES: CC[C@H](C)[C@H](NC(=O)[C@H](CO)NC(=O)[C@H](Cc1ccc(O)cc1)NC(=O)[C@H](CC(=O)O)NC(=O)[C@H](CO)NC(=O)[C@@H](NC(=O)[C@H](Cc1ccccc1)NC(=O)[C@@H](NC(=O)CNC(=O)[C@H](Cc1c[nH]cn1)NC(=O)C(C)(C)NC(=O)[C@@H](N)Cc1c[nH]cn1)[C@@H](C)O)[C@@H](C)O)C(=O)N[C@@H](CC(C)C)C(=O)N[C@@H](CC(C)C)C(=O)N[C@@H](CCC(=O)O)C(=O)N[C@@H](CCCCNC(=O)COCCOCCNC(=O)COCCOCCNC(=O)CC[C@H](NC(=O)CCCCCCCCCCCCCCCCCCC(=O)O)C(=O)O)C(=O)N[C@@H](CCCCN)C(=O)N[C@@H](C)C(=O)N[C@@H](C)C(=O)N[C@@H](CCC(N)=O)C(=O)N[C@@H](CCC(=O)O)C(=O)N[C@@H](Cc1ccccc1)C(=O)N[C@H](C(=O)N[C@@H](CCC(=O)O)C(=O)N[C@@H](Cc1c[nH]c2ccccc12)C(=O)N[C@@H](CC(C)C)C(=O)N[C@@H](CC(C)C)C(=O)N[C@@H](C)C(=O)N[C@H](CCC(=O)O)C(=O)NCC(=O)N1CCC[C@H]1C(=O)N[C@@H](CO)C(=O)N[C@@H](CO)C(=O)NCC(=O)N[C@@H](C)C(=O)N1CCC[C@H]1C(=O)N1CCC[C@H]1C(=O)N1CCC[C@H]1C(=O)N[C@@H](CO)C(N)=O)C(C)C
- Activity against human GLP-1R (EC50 nM) [11]: 0.037 nM
- Activity against human GIPR (EC50 nM) [12]: 0.004 nM
- Activity against human GCGR (EC50 nM) [13]: 0.055 nM

Source: patent EP4745153A1, “GLP-1, GIP AND GCG RECEPTOR […] USE THEREOF” (Jiangsu Hengrui Pharmaceuticals Co., Ltd., priority 2023, dated 2025)
